The values below come from patent publication US20210002370A1.

For the assay, the target named is PD-L1 extracellular domain expressed in HEK293 cells (human) (UniProt Q9NZQ7). Kind of assay: gradient dilution ELISA on coated PD-L1, serum dilution 200.
Sequence of PD-L1 extracellular domain expressed in HEK293 cells (human) (Q9NZQ7 19-238): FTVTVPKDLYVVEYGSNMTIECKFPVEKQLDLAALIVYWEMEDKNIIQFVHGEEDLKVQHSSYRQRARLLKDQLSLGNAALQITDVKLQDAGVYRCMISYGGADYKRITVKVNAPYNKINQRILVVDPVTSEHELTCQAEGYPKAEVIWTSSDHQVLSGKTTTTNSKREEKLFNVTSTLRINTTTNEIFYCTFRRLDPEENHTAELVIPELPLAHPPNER

In turn, Alpaca serum before immunization registered an ELISA OD of 0.631 OD450 nm.
